In paper PMC2722759 (Nature cell biology, 2008):
Where two headings read alike, the source gives them in different places.

How the values were obtained:
Experiment in all cases: SPR
[1] = biological target: Fc-tagged sFRP2 Fzl domain (mouse)
FLAG-tagged BMP1 [2] = biological target: T1, FLAG-tagged BMP1 (human, UniProt P13497-2 23-730)
T1 sequence (looked up): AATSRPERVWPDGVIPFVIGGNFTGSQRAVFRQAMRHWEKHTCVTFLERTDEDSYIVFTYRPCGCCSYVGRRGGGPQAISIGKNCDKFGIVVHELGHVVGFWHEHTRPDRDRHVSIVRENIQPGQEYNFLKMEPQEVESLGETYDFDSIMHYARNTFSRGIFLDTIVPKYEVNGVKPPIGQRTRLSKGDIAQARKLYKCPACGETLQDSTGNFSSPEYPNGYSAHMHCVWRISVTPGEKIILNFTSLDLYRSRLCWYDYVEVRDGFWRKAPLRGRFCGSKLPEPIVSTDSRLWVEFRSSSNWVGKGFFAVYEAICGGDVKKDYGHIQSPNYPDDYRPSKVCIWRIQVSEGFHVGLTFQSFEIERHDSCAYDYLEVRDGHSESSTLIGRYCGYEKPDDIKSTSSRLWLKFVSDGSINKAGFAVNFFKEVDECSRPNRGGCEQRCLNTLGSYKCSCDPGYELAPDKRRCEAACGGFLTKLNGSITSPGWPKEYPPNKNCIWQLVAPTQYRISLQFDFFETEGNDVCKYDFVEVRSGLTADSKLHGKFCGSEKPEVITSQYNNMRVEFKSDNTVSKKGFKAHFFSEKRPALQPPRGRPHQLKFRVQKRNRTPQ

FLAG-tagged BMP1 [3] = biological target: T1, FLAG-tagged BMP1; remark: listed apart in the source

Molecule: FLAG-tagged BMP1 (from UniProt P13497-2 23-730) (enzyme)
- Kd [1]: 8.68 nM

B1: His-tagged sFRP2 (natural protein, mouse, UniProt P97299 25-295, looked up)
chain: LFLFGQPDFSYKRSNCKPIPANLQLCHGIEYQNMRLPNLLGHETMKEVLEQAGAWIPLVMKQCHPDTKKFLCSLFAPVCLDDLDETIQPCHSLCVQVKDRCAPVMSAFGFPWPDMLECDRFPQDNDLCIPLASSDHLLPATEEAPKVCEACKTKNEDDNDIMETLCKNDFALKIKVKEITYINRDTKIILETKSKTIYKLNGVSERDLKKSVLWLKDSLQCTCEEMNDINAPYLVMGQKQGGELVITSVKRWQKGQREFKRISRSIRKLQC
- Kd (FLAG-tagged BMP1 [2]): 7.13 nM

B2: full-length sFRP2-Fc (Fc fusion, mouse, UniProt P97299 25-295, looked up)
chain: B1 chain
- Kd (FLAG-tagged BMP1 [3]): ~6.01 nM
